Reference: paper doi:10.1101/2025.07.15.665002 (bioRxiv, 2025)

Target: the molecule itself
Assay: SAXS

| Protein | stoichiometry N |
| --- | --- |
| human mitochondrial malate dehydrogenase (hMDH2), wild type (enzyme, UniProt P40926-1 25-338, looked up) AKVAVLGASGGIGQPLSLLLKNSPLVSRLTLYDIAHTPGVAADLSHIETKAAVKGYLGPEQLPDCLKGCDVVVIPAGVPRKPGMTRDDLFNTNATIVATLTAACAQHCPEAMICVIANPVNSTIPITAEVFKKHGVYNPNKIFGVTTLDIVRANTFVAELKGLDPARVNVPVIGGHAGKTIIPLISQCTPKVDFPQDQLTALTGRIQEAGTEVVKAKAGAGSATLSMAYAGARFVFSLVDAMNGKEGVVECSFVKSQETECTYFSTPLLLGKKGIEKNLGIGKVSSFEEKMISDAIPELKASIKKGEDFVKTLK | 2 |
| human cytosolic malate dehydrogenase, splice variant 3 (hMDH1V3) (enzyme, UniProt P40925-3 1-352, looked up) MGRRCSYFPKDVTVFDKDDKSEPIRVLVTGAAGQIAYSLLYSIGNGSVFGKDQPIILVLLDITPMMGVLDGVLMELQDCALPLLKDVIATDKEDVAFKDLDVAILVGSMPRREGMERKDLLKANVKIFKSQGAALDKYAKKSVKVIVVGNPANTNCLTASKSAPSIPKENFSCLTRLDHNRAKAQIALKLGVTANDVKNVIIWGNHSSTQYPDVNHAKVKLQGKEVGVYEALKDDSWLKGEFVTTVQQRGAAVIKARKLSSAMSAAKAICDHVRDIWFGTPEGEFVSMGVISDGNSYGVPDDLLYSFPVVIKNKTWKFVEGLPINDFSREKMDLTAKELTEEKESAFEFLSSA | 2 |
